Read-outs that look alike come from different tables or passages of the source.
B1: Selenomethionyl CalS11 (TDP-rhamnose 3'-O-methyltransferase), cell-free synthesized (enzyme, Micromonospora echinospora)
chain: DSGDGQDLRAFVHDSPEETETTQRLTKLLTNSPIPTEELVNNLPLFLRRHQMTDLLSMDALYRQVLDVPGVIMEFGVRFGRHLGTFAALRGVYEPYNPLRRIVGFDTFTGFPDVNDVDRVGPTAYQGRFAVPGGYPAYLKEVLDAHECSDFFGHVTQRSVLVEGDVRETVPRYLAENPQTVIALAYFDLDLYEPTKAVLEAIRPYLTKGSIVAFDELDNPKWPGENIAMRKVLGLDHAPLRLLPGRPAPAYLRWGD
modifications: selenomethionine in place of methionine
B2: Native CalS11 (TDP-rhamnose 3'-O-methyltransferase), from E. coli (enzyme, Micromonospora echinospora)
chain: MDSGDGQDLRAFVHDSPEETETTQRLTKLLTNSPIPTEELVNNLPLFLRRHQMTDLLSMDALYRQVLDVPGVIMEFGVRFGRHLGTFAALRGVYEPYNPLRRIVGFDTFTGFPDVNDVDRVGPTAYQGRFAVPGGYPAYLKEVLDAHECSDFFGHVTQRSVLVEGDVRETVPRYLAENPQTVIALAYFDLDLYEPTKAVLEAIRPYLTKGSIVAFDELDNPKWPGENIAMRKVLGLDHAPLRLLPGRPAPAYLRWGD

Columns and labels:
crystal structure [1] = biological target: the molecule itself; test: crystal structure
crystal structure [2] = biological target: the molecule itself; test: crystal structure; remark: listed apart in the source

| Protein | stoichiometry N (crystal structure [1]) | stoichiometry N (crystal structure [2]) |
| --- | --- | --- |
| B1 | 10 | – |
| B2 | – | 10 |

Reference: paper PMC3875630 (ACS chemical biology, 2013)
